The target of test [1] is dynamic microtubules grown from coverslip-anchored biotinylated GMPcPP seeds (bovine brain tubulin) (bovine) (UniProt Q6B856). The test can be described thus: laser trap bidirectional sliding friction assay; beads decorated sparsely with native kinetochore particles on the sides of coverslip-anchored dynamic microtubules; constant force 0.5-3 pN along the axis, direction reversed periodically; speeds at 1 ± 0.5 pN.

Test [2] has the same target. The experiment in a line: laser trap rupture force assay; kinetochore particles sparsely on anti-His polystyrene beads, attached near the tips of dynamic microtubules grown from coverslip-anchored seeds; preload about 1 pN, then force ramp 0.25 pN/s until detachment; growth buffer (BRB80, 1 mM GTP, tubulin).
Test [3] shares this target. The experiment in a line: laser trap bidirectional sliding friction assay; anti-His beads densely coated with recombinant Ndc80c (about 3,000 complexes a bead, not single-molecule conditions) on the sides of coverslip-anchored dynamic microtubules; constant force along the axis, direction reversed; speeds at 1 ± 0.5 pN.

Take “native kinetochore particles isolated from yeast (Dsn1-6His-3Flag) (from UniProt P40568 1-576) (complex)”: in test [1], the mean sliding speed of side-attached beads under 1 pN toward the minus end was 674 nm·s^-1 and the mean sliding speed of side-attached beads under 1 pN toward the plus end was 109 nm·s^-1. In test [2], the mean rupture strength at microtubule minus ends is 3.3 pN and the mean rupture strength at microtubule plus ends is 9.7 pN.
Consider “recombinant human Ndc80 complex (from UniProt O14777 1-642; Q9BZD4 1-464; Q8NBT2 1-197; Q9HBM1 1-224)”, for which, in test [3], the mean sliding speed of side-attached beads under 1 pN toward the minus end stood at 464 nm·s^-1 and the mean sliding speed of side-attached beads under 1 pN toward the plus end amounted to 130 nm·s^-1.

Values taken from paper PMC11533501.
